Consider two molecules from PMC3760765, “A Meiosis-Specific Form of the APC/C Promotes the Oocyte-to-Embryo Transition by Decreasing Levels of the Polo Kinase Inhibitor Matrimony” (PLoS Biology, 2013).

One assay deals with T1, GST-CycA (Cyclin A) (UniProt P14785 1-491).
T1 construct: Cyclin A; construct not described in the methods
T1 sequence (looked up): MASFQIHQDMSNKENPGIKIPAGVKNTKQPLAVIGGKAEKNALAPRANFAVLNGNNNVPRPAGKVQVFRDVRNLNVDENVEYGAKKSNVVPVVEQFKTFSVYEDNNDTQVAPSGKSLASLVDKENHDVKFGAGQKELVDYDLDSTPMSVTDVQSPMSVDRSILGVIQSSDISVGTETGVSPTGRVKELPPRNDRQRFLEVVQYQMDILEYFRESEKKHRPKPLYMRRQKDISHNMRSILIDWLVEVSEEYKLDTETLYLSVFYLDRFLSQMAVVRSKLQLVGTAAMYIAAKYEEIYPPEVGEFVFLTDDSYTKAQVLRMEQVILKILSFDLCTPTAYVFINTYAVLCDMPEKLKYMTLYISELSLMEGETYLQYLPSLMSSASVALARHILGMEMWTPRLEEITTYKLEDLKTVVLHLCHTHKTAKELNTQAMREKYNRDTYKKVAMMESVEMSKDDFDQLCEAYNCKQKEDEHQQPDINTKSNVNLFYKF
In words: pull-down; purified GST-tagged protein on beads incubated with 5 µl in vitro translation reaction (reticulocyte lysate) in 500 µl IP buffer, 2 h at 4°C; 3 washes; Western blot with anti-Myc 9E10. Conditions: one partner purified. (In general: In western blotting, separated proteins are transferred to a membrane and probed.)

The target of assay [1] is T2, GST-tagged Mtrm (Matrimony) (Drosophila melanogaster, UniProt Q23973 1-217).
T2 construct: mtrm cDNA LD47919 cloned into pGEX6p-1; also called GST-Mtrm; source: expressed and purified from bacteria
T2 sequence (looked up): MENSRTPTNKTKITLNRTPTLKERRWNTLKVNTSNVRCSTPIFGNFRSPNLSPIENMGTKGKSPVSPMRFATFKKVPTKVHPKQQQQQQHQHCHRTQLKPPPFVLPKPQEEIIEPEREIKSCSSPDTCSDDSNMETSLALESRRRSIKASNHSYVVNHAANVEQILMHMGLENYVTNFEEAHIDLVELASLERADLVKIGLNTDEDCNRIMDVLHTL
The description is as above. Conditions: one partner purified.

B1: 6×Myc-Fzy/Cdc20, in vitro translated (natural protein, Drosophila melanogaster, UniProt Q24044 1-526, looked up)
chain: MSQFNFVSDLQNALIMDGETRGPAPRWKKKLEASLNGSVNTTRSVLSVSYNTSFSGVQAPTKTPGKSSEGKTKKSNTTPSKTPGGGDRFIPNRAATNFELAHFLVNKDSGDKSDEENDKATSSNSNESNVQASAHKGDRQKLISEVAQVGDSKGGRILCYQNKAPAAPETHNNPLKVVYSIKTPISTKSGSRYIPTTSERILDAPDFINDYYLNLMDWSADNIVAVALGSCVYLWNAQTGNIEQLTEFEEGDYAGSLSWIQEGQILAIGNSTGAVELWDCSKVKRLRVMDGHSARVGSLAWNSFLVSSGSRDGTIVHHDVRAREHKLSTLSGHTQEVCGLKWSTDFKYLASGGNDNLVNVWSAASGGVGTATDPLHKFNDHQAAVRALAWCPWQPSTLASGGGTADRCIKFWNVNNGTLMKSVDSKSQVCSLLFSRHYKELISAHGFANNQLTIWKYPTMVKQADLTGHTSRVLQMAMSPDGSTVISAGADETLRLWNCFAPDPLASKKAVSTSKGKQSVFRQSIR
notes: 6×myc-fzy/cdc20 cDNA cloned into pOT2; also called Myc-tagged Fzy/Cdc20; Fizzy; source: in vitro translated (TnT T7 Coupled Reticulocyte Lysate System, rabbit reticulocyte lysate)
In the case of B1, the “fold binding to GST-CycA against binding to GST-Mtrm” value with GST-CycA (Cyclin A) was 155 fold.

B2: 6×Myc-Cortex (full length), in vitro translated (natural protein, Drosophila melanogaster, UniProt Q960N3 1-483, looked up)
chain: MFVEMSVCDSPNKNSKLDKKSLTPFKKVRRKNWKQEAAYKSDTSKGQEVSYVGERFIPNRFERENIEFNLKYIGKRKERDILETGVTLTASYWRQSGFISNINRTFGIGERRLFQFSSQQGTRSRVVDNDSADSDWPCNPRARPYAIQNATHEMPGICSPVDYNMMDWSSGGMVAMSSGQDVMLWRNLDESTMVFSVESPTSLKYSPDGKHLAIGCMDRNYPVLDLWEVRSPTEFLVSYRKLFFKSMGYISCIEWSHDGKEVICGTQCGVIIVLAMPTLNTLMQLREHRHTVKKMKFAPTHKYFASSDTDGKIFIFDAVLKVRLLKLDGRSIVFDWHPWTGEDLAVAERSPASIFIFNIPRRQFVASYRRRDDRIVIKTLTYSKITGELLVNVIRRDDADLAVCEILVLASLNRVVDLMSHQDRGTLFLMWNPDGTKIATGGLDDTFSLWNFFPTYKREAILRKQEQKAKDKCSSLSLYKGIR
notes: 6×myc-cort cDNA cloned into pOT2; also called Myc-tagged Cort; source: in vitro translated (TnT T7 Coupled Reticulocyte Lysate System, rabbit reticulocyte lysate)
As for B2, the “fold binding to GST-Mtrm against 6×Myc-CortΔWD40” value in assay [1] came out at 5.8 fold.
